127 variants from the emibetuzumab library of Makowski et al. (2022) can be followed below.

B1: VH:VL chains; a variant is named by its letters at X, in order (parent)
chain 1: QVQLVQSGAEVKKPGASVKVSCKASGYTFTDYXMHWVRQAPGQGLEWMGXVNPNXXXTTYNQKFEGRVTMTTDTSTSTAYMELRSLRSDDTAVYYCARXNXLDXWGQGTTVTVSS
chain 2: DIQMTQSPSSLSASVGDRVTITCSVSSSVSSIYLHWYQQKPGKAPKLLIYSTSNLASGVPSRFSGSGSGTDFTLTISSLQPEDFATYYCQVYSGYPLTFGGGTKVEIK

Variants of B1 are the subject of this data set. Description: yeast display scFab, FACS + sequencing. The gist of the method: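 Non-specific binding was called from deep sequencing of sorted yeast cells displaying a heavy-chain CDR mutant scFab library. Cells labelled with anti-Myc and biotinylated ovalbumin (260 μg/mL in PBSB, 3 h, room temperature) or soluble membrane proteins (130 μg/mL, 20 min on ice) were FACS-sorted, collecting the top 25% and bottom 10% of binders from two replicates. A sequence was positive when present in ≥3 of 4 pooled positive samples and absent from all negatives, and negative under the converse rule.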
Turning to FRGKGSGV, the non-specific binding call was “binds”.

FRGRDYGA: the non-specific binding call is “binds”.

In the case of FRGRDYGS, the non-specific binding call is “binds”.

As for FRGRDYGD, the non-specific binding call is “binds”.

Turning to FRGRDYGF, the non-specific binding call is reported as “binds”.

As to FRGRDYGY, the non-specific binding call is “binds”.

On to YRGRDYGV, for which the non-specific binding call is reported as “binds”.

In the case of SRGRGSSS, the non-specific binding call is “binds”.

FRGKGAVD: the non-specific binding call is on record as “binds”.

Turning to FRGKGAVS, the non-specific binding call is reported as “binds”.

Turning to SRGKGDAD, the non-specific binding call is listed as “no binding”.

With VRGKDSLD, the non-specific binding call was “no binding”.

Regarding DRGRDDVA, the non-specific binding call is on record as “no binding”.

Take DRGRDDVF: the non-specific binding call is listed as “no binding”.

For the variant DRGRDDVD, the non-specific binding call was “no binding”.

As for DRGRDDVV, the non-specific binding call is “no binding”.

As for YRGKSSAD, the non-specific binding call is given as “binds”.

As to YRGRDALV, the non-specific binding call is listed as “binds”.

Regarding VRGRGFVV, the non-specific binding call is reported as “binds”.

Turning to ARGRGAAD, the non-specific binding call is “binds”.

For ARGRGAAS, the non-specific binding call is reported as “binds”.

As to VRGKGSGF, the non-specific binding call is “binds”.

On to VRGKGSGV, for which the non-specific binding call is given as “binds”.

On to VRGKGSGA, for which the non-specific binding call was “binds”.

As to FRGKGAAS, the non-specific binding call is reported as “binds”.

As to FRGKGAAV, the non-specific binding call was “binds”.

Regarding FRGKGAAA, the non-specific binding call is reported as “binds”.

As to SRGRGSGA, the non-specific binding call was “binds”.

On to ARGRGSSS, for which the non-specific binding call is listed as “binds”.

In the case of SRGKGSGV, the non-specific binding call is “binds”.

In the case of YRGRGSSF, the non-specific binding call is “binds”.

In the case of YRGKGYAA, the non-specific binding call was “binds”.

Regarding FRGRGFGV, the non-specific binding call is recorded as “binds”.

Consider YRGKSSGF, for which the non-specific binding call is “binds”.

Take FRGRDSWS: the non-specific binding call was “binds”.

As for FRGRDSVA, the non-specific binding call is “binds”.

Turning to FRGKSAAA, the non-specific binding call is given as “binds”.

For the variant VRGKGAVD, the non-specific binding call is “binds”.

Turning to FRGRGSAV, the non-specific binding call is reported as “binds”.

For the variant FRGRGSAY, the non-specific binding call is reported as “binds”.

With FRGRGSAD, the non-specific binding call is listed as “binds”.

Consider FRGRGSAA, for which the non-specific binding call is “binds”.

As to FRGRGSAF, the non-specific binding call was “binds”.

For DRGRGSAD, the non-specific binding call was “binds”.

VRGRDDGV: the non-specific binding call is on record as “no binding”.

In the case of VRGRGDLA, the non-specific binding call is “no binding”.

For the variant ARGRGAWV, the non-specific binding call is “binds”.

For the variant FRGKGAGA, the non-specific binding call is reported as “binds”.

Turning to FRGKGAGY, the non-specific binding call is reported as “binds”.

FRGKGAGS: the non-specific binding call is listed as “binds”.

Turning to YRGKDVGV, the non-specific binding call is reported as “binds”.

As to FRGRGALS, the non-specific binding call is “binds”.

With FRGRGALA, the non-specific binding call is recorded as “binds”.

Take FRGRGALF: the non-specific binding call was “binds”.

On to FRGRGALY, for which the non-specific binding call is on record as “binds”.

YRGKGALS: the non-specific binding call is on record as “binds”.

As to YRGKGALA, the non-specific binding call is “binds”.

In the case of YRGKSAAV, the non-specific binding call is “binds”.

Turning to YRGKGYVV, the non-specific binding call is “binds”.

Regarding VRGRAAGD, the non-specific binding call was “no binding”.

In the case of VRGKGAWD, the non-specific binding call is “binds”.

As for VRGKGAWA, the non-specific binding call is “binds”.

In the case of FRGRGAWF, the non-specific binding call is reported as “binds”.

Turning to FRGRGAWS, the non-specific binding call is “binds”.

For the variant FRGRGAWV, the non-specific binding call is reported as “binds”.

For FRGRGAWD, the non-specific binding call was “binds”.

Regarding FRGRGSVY, the non-specific binding call is on record as “binds”.

As for FRGRGSVV, the non-specific binding call is listed as “binds”.

Consider FRGRGSVS, for which the non-specific binding call is on record as “binds”.

For FRGRGSVD, the non-specific binding call is recorded as “binds”.

For the variant FRGRGSVF, the non-specific binding call was “binds”.

Take YRGKGAAF: the non-specific binding call is recorded as “binds”.

Take YRGKGAAS: the non-specific binding call is recorded as “binds”.

On to VRGRDFGV, for which the non-specific binding call is reported as “binds”.

Regarding FRGKGSWD, the non-specific binding call is listed as “binds”.

On to YRGKGFVA, for which the non-specific binding call is “binds”.

Consider YRGKGFVV, for which the non-specific binding call is recorded as “binds”.

As for VRGKGDWV, the non-specific binding call was “no binding”.

Turning to FRGRGFLS, the non-specific binding call is reported as “binds”.

For the variant VRGRGFLD, the non-specific binding call is “binds”.

As for FRGRGDVD, the non-specific binding call was “binds”.

On to FRGRGDVV, for which the non-specific binding call is “binds”.

Consider DRGKNDGD, for which the non-specific binding call is “no binding”.

With FRGKGFGV, the non-specific binding call was “binds”.

With YRGKGVGV, the non-specific binding call is “binds”.

YRGKGVGD: the non-specific binding call is recorded as “binds”.

Turning to FRGRDDVF, the non-specific binding call is on record as “no binding”.

For SRGRGAWY, the non-specific binding call is “binds”.

Regarding SRGRGAWA, the non-specific binding call was “binds”.

On to SRGRGAWS, for which the non-specific binding call was “binds”.

Turning to SRGRGAWF, the non-specific binding call is given as “binds”.

SRGRGAWD: the non-specific binding call is listed as “binds”.

Regarding FRGRGDLS, the non-specific binding call is “binds”.

With FRGRGFVA, the non-specific binding call is “binds”.

For the variant SRGRGSVD, the non-specific binding call is on record as “binds”.

With YRGRGSAY, the non-specific binding call is on record as “binds”.

As for YRGRGSAF, the non-specific binding call was “binds”.

Turning to YRGRDASA, the non-specific binding call is “binds”.

In the case of YRGRDASF, the non-specific binding call was “no binding”.

On to YRGRDASS, for which the non-specific binding call was “no binding”.

Take ARGKGSGD: the non-specific binding call is given as “binds”.

SRGRGAGF: the non-specific binding call is recorded as “binds”.

As to YRGKDSGA, the non-specific binding call is reported as “binds”.

With YRGKDSGS, the non-specific binding call is on record as “binds”.

With FRGRDALY, the non-specific binding call was “binds”.

On to VRGRGALF, for which the non-specific binding call is “binds”.

For VRGRGALS, the non-specific binding call is recorded as “binds”.

For the variant YRGKDAWS, the non-specific binding call is “binds”.

As for YRGKDAWY, the non-specific binding call was “binds”.

As to YRGKGDGS, the non-specific binding call is “binds”.

For FRGRAAVD, the non-specific binding call is “binds”.

Turning to YRGRGFAY, the non-specific binding call is on record as “binds”.

For the variant YRGRGFAS, the non-specific binding call was “binds”.

For YRGRGFAD, the non-specific binding call was “binds”.

As to VRGKGSSS, the non-specific binding call was “binds”.

As for VRGKGSSD, the non-specific binding call is given as “no binding”.

Regarding DRGRDAWS, the non-specific binding call is listed as “no binding”.

DRGRDAWF: the non-specific binding call is listed as “no binding”.

With FRGRGDWV, the non-specific binding call was “no binding”.

Consider FRGRGSGV, for which the non-specific binding call is listed as “binds”.

Turning to FRGRGSGF, the non-specific binding call is “binds”.

YRGRASGA: the non-specific binding call is listed as “binds”.

Regarding SRGKSFGS, the non-specific binding call is on record as “binds”.

As for SRGRGFVA, the non-specific binding call is “binds”.

As to SRGRGSLS, the non-specific binding call was “binds”.

On to YRGRGDSV, for which the non-specific binding call is reported as “no binding”.

FRGRDDLV: the non-specific binding call was “no binding”.
